In one assay the test system is 3×MBT domain of L3MBTL1. The assay can be described thus: Triple SILAC pull-down, 3xMBT/3xMBTD355N ratio (cytoplasmic, nuclear and chromatin fractions of 293T cells).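 As to all read-outs here: proteins quantified with MaxQuant, requiring at least two unique peptides and quantification in both label directions, normalized to the mean of proteins from a digested loading control.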 It counts as binding, human. To be noted: for 3xMBT/D355N UNC Heavy: experiment with UNC0638 in heavy SILAC media; for 3xMBT/D355N UNC Light: experiment with UNC0638 in light SILAC media.
A further assay deals with T1, G9a and GLP (Homo sapiens, UniProt Q96KQ7+Q9H9B1).
T1 sequence (Q96KQ7 2-1210 limits assumed): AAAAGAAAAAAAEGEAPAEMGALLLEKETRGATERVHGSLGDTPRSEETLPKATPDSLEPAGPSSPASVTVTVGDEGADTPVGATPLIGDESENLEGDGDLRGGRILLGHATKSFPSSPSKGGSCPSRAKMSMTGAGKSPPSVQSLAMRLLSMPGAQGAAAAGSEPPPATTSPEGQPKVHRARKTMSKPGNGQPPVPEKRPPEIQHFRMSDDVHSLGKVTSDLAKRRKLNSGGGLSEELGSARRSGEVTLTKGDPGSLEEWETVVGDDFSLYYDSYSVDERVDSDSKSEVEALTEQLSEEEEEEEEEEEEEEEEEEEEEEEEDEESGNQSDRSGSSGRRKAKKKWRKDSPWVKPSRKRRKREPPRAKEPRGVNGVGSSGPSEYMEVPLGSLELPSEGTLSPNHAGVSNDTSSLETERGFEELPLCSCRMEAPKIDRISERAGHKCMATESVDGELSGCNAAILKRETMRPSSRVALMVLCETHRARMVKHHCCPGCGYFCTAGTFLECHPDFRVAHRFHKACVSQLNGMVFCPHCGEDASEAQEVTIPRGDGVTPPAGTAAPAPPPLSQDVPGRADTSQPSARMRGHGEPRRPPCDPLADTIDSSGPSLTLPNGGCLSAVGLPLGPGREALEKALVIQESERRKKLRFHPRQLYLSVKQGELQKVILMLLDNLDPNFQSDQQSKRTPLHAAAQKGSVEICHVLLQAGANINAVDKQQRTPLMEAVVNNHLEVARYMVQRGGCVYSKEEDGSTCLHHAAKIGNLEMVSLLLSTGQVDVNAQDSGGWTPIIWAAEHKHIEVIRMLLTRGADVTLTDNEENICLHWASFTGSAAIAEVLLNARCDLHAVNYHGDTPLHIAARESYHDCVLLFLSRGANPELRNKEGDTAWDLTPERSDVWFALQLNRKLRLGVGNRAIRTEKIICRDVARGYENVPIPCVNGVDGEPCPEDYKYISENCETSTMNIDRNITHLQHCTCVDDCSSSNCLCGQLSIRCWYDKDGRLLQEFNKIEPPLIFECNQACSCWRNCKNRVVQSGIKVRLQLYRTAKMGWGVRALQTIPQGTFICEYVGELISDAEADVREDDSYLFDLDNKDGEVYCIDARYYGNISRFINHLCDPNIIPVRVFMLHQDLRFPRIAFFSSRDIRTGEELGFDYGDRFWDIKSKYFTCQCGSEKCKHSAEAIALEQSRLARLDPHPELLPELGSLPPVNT
T1 sequence (Q9H9B1 2-1298 limits assumed): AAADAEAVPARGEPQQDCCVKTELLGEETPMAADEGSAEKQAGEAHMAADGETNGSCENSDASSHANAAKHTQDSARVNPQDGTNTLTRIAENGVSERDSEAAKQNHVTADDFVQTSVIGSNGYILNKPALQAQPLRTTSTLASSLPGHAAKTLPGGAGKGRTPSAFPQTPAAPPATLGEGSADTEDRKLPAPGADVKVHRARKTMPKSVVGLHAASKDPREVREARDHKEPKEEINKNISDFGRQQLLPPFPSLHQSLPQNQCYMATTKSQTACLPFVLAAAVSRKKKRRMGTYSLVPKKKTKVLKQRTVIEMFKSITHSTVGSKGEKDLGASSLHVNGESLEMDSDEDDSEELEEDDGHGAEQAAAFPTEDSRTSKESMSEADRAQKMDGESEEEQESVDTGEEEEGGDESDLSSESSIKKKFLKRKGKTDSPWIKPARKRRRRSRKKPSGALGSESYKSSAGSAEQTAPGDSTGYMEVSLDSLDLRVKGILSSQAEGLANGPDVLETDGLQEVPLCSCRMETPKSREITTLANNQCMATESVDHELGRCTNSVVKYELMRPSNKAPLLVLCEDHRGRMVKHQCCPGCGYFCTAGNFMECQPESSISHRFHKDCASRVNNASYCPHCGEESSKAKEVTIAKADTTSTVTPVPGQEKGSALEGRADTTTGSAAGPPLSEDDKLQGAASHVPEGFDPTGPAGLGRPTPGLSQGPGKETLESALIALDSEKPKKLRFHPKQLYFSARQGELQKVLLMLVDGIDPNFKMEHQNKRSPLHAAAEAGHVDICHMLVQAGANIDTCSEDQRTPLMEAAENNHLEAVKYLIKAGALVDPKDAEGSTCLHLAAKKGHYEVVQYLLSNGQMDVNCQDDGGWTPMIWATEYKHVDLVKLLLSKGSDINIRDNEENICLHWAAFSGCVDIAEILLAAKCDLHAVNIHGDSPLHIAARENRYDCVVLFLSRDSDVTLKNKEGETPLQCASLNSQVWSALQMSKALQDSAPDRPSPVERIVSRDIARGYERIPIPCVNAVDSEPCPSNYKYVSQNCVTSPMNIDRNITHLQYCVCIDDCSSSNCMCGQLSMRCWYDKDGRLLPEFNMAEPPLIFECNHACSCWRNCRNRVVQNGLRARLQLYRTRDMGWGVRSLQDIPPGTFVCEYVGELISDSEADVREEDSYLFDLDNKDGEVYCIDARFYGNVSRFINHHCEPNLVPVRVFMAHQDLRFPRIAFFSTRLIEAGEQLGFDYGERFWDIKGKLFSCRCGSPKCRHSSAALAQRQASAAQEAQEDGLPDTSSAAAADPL
The assay can be described thus: Triple SILAC pull-down after UNC0638 treatment of 293T cells, DMSO/UNC0638 ratio of protein captured by 3×MBT.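 As to all read-outs here: mass spectrometry (Q-Exactive) SILAC quantitation, DMSO/UNC0638 ratio computed after subtracting 3×MBTD355N mutant pull-down background, only proteins with at least twofold 3×MBT over mutant signal considered.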 To be noted: for Relative to UNC0638 UNC Heavy: UNC0638 in heavy SILAC media; for Relative to UNC0638 UNC Light: UNC0638 in light SILAC media; for Relative to UNC0638 Average: average of UNC Light and UNC Heavy experiments. More on the design: cells were treated for 24 hours with UNC0638 at 2.5 μM or DMSO vehicle control; endogenous in cells; host or cells: HEK 293T. It is filed as cell-based.

[1] abbreviates: SILAC ratio 3xMBT vs 3xMBTD355N pull-down, 293T cells, all values in log base 2.
Where [2] appears, read: SILAC ratio DMSO relative to UNC0638, pull-down with 3xMBT, all values in log base 2.
Setting [3] is: SILAC ratio, pull-down 3xMBT vs 3xMBTD355N.
[4] abbreviates: SILAC ratio DMSO/UNC0638 of protein pulled down with 3xMBT.

B1: ZRANB2 (protein, UniProt O95218 1-330, looked up)
Zinc finger Ran-binding …: MSTKNFRVSDGDWICPDKKCGNVNFARRTSCNRCGREKTTEAKMMKAGGTEIGKTLAEKSRGLFSANDWQCKTCSNVNWARRSECNMCNTPKYAKLEERTGYGGGFNERENVEYIEREESDGEYDEFGRKKKKYRGKAVGPASILKEVEDKESEGEEEDEDEDLSKYKLDEDEDEDDADLSKYNLDASEEEDSNKKKSNRRSRSKSRSSHSRSSSRSSSPSSSRSRSRSRSRSSSSSQSRSRSSSRERSRSRGSKSRSSSRSHRGSSSPRKRSYSSSSSSPERNRKRSRSRSSSSGDRKKRRTRSRSPERRHRSSSGSSHSGSRSSSKKK
For B1, in the assay on 3×MBT domain of L3MBTL1 (setting [1]), the “3xMBT/D355N UNC Heavy” value came to 0.71 log base 2 and the “3xMBT/D355N UNC Light” value is listed as 2.59 log base 2. For the same molecule, in the assay with G9a and GLP (setting [2]), the “Relative to UNC0638 UNC Heavy” value is given as −0.09 log base 2 and the “Relative to UNC0638 UNC Light” value is given as −0.02 log base 2. In addition, the “Relative to UNC0638 Average” value with G9a and GLP (all values in log base 2) is given as −0.06 log base 2.

B2: CSTF3 (protein, UniProt Q12996 2-717, looked up)
Cleavage stimulation factor …: SGDGATEQAAEYVPEKVKKAEKKLEENPYDLDAWSILIREAQNQPIDKARKTYERLVAQFPSSGRFWKLYIEAEIKAKNYDKVEKLFQRCLMKVLHIDLWKCYLSYVRETKGKLPSYKEKMAQAYDFALDKIGMEIMSYQIWVDYINFLKGVEAVGSYAENQRITAVRRVYQRGCVNPMINIEQLWRDYNKYEEGINIHLAKKMIEDRSRDYMNARRVAKEYETVMKGLDRNAPSVPPQNTPQEAQQVDMWKKYIQWEKSNPLRTEDQTLITKRVMFAYEQCLLVLGHHPDIWYEAAQYLEQSSKLLAEKGDMNNAKLFSDEAANIYERAISTLLKKNMLLYFAYADYEESRMKYEKVHSIYNRLLAIEDIDPTLVYIQYMKFARRAEGIKSGRMIFKKAREDTRTRHHVYVTAALMEYYCSKDKSVAFKIFELGLKKYGDIPEYVLAYIDYLSHLNEDNNTRVLFERVLTSGSLPPEKSGEIWARFLAFESNIGDLASILKVEKRRFTAFKEEYEGKETALLVDRYKFMDLYPCSASELKALGYKDVSRAKLAAIIPDPVVAPSIVPVLKDEVDRKPEYPKPDTQQMIPFQPRHLAPPGLHPVPGGVFPVPPAAVVLMKLLPPPICFQGPFVQVDELMEIFRRCKIPNTVEEAVRIITGGAPELAVEGNGPVESNAVLTKAVKRPNEDSDEDEEKGAVVPPVHDIYRARQQKRIR
For the molecule B2, in the assay with 3×MBT domain of L3MBTL1 (setting [1]), the “3xMBT/D355N UNC Heavy” value worked out at 1.58 log base 2 and the “3xMBT/D355N UNC Light” value is on record as 1.48 log base 2. In addition, in the assay with G9a and GLP (setting [2]), the “Relative to UNC0638 UNC Heavy” value is listed as −0.78 log base 2 and the “Relative to UNC0638 UNC Light” value was 0.47 log base 2. Moreover, the “Relative to UNC0638 Average” value with G9a and GLP (all values in log base 2) is −0.15 log base 2.

B3: CYFIP1 (protein, UniProt Q7L576 1-1253, looked up)
Cytoplasmic FMR1-interacting …: MAAQVTLEDALSNVDLLEELPLPDQQPCIEPPPSSLLYQPNFNTNFEDRNAFVTGIARYIEQATVHSSMNEMLEEGQEYAVMLYTWRSCSRAIPQVKCNEQPNRVEIYEKTVEVLEPEVTKLMNFMYFQRNAIERFCGEVRRLCHAERRKDFVSEAYLITLGKFINMFAVLDELKNMKCSVKNDHSAYKRAAQFLRKMADPQSIQESQNLSMFLANHNKITQSLQQQLEVISGYEELLADIVNLCVDYYENRMYLTPSEKHMLLKVMGFGLYLMDGSVSNIYKLDAKKRINLSKIDKYFKQLQVVPLFGDMQIELARYIKTSAHYEENKSRWTCTSSGSSPQYNICEQMIQIREDHMRFISELARYSNSEVVTGSGRQEAQKTDAEYRKLFDLALQGLQLLSQWSAHVMEVYSWKLVHPTDKYSNKDCPDSAEEYERATRYNYTSEEKFALVEVIAMIKGLQVLMGRMESVFNHAIRHTVYAALQDFSQVTLREPLRQAIKKKKNVIQSVLQAIRKTVCDWETGHEPFNDPALRGEKDPKSGFDIKVPRRAVGPSSTQLYMVRTMLESLIADKSGSKKTLRSSLEGPTILDIEKFHRESFFYTHLINFSETLQQCCDLSQLWFREFFLELTMGRRIQFPIEMSMPWILTDHILETKEASMMEYVLYSLDLYNDSAHYALTRFNKQFLYDEIEAEVNLCFDQFVYKLADQIFAYYKVMAGSLLLDKRLRSECKNQGATIHLPPSNRYETLLKQRHVQLLGRSIDLNRLITQRVSAAMYKSLELAIGRFESEDLTSIVELDGLLEINRMTHKLLSRYLTLDGFDAMFREANHNVSAPYGRITLHVFWELNYDFLPNYCYNGSTNRFVRTVLPFSQEFQRDKQPNAQPQYLHGSKALNLAYSSIYGSYRNFVGPPHFQVICRLLGYQGIAVVMEELLKVVKSLLQGTILQYVKTLMEVMPKICRLPRHEYGSPGILEFFHHQLKDIVEYAELKTVCFQNLREVGNAILFCLLIEQSLSLEEVCDLLHAAPFQNILPRVHVKEGERLDAKMKRLESKYAPLHLVPLIERLGTPQQIAIAREGDLLTKERLCCGLSMFEVILTRIRSFLDDPIWRGPLPSNGVMHVDECVEFHRLWSAMQFVYCIPVGTHEFTVEQCFGDGLHWAGCMIIVLLGQQRRFAVLDFCYHLLKVQKHDGKDEIIKNVPLKKMVERIRKFQILNDEIITILDKYLKSGDGEGTPVEHVRCFQPPIHQSLASS
For the molecule B3, in the assay with 3×MBT domain of L3MBTL1 (setting [3]), the “3xMBT/D355N UNC Heavy” value was determined as 1.93 log base 2 and the “3xMBT/D355N UNC Light” value is 1.58 log base 2. In the assay with G9a and GLP (setting [4]), the “Relative to UNC0638 UNC Heavy” value is given as 0.55 log base 2 and the “Relative to UNC0638 UNC Light” value is on record as 0.36 log base 2. In addition, the “Relative to UNC0638 Average” value with G9a and GLP came to 0.46 log base 2. In the assay with G9a and GLP (reduced association with 3xMBT after UNC0638 treatment), the “Candidate G9a/GLP target” value is recorded as “✓”.
